Read-outs that look alike come from different tables or passages of the source.
How the values were obtained:
[1] = target: T1, SARS-CoV-1 spike on pseudovirus (SARS-CoV-1, UniProt P59594 14-1255); assay: cell-based or functional assay
[2] = target: T2, SARS-CoV-2 spike on pseudovirus or live virus (USA-WA1/2020, WT) (SARS-CoV-2, UniProt P0DTC2 14-1273); assay: cell-based or functional assay
[3] = target: T1, SARS-CoV-1 spike on pseudovirus; assay: cell-based or functional assay; remark: listed apart in the source
[4] = target: SARS-CoV-1 RBD (RBD-1) (SARS-CoV-1); assay: ELISA
[5] = target: SARS-CoV-2 RBD (RBD-2) (SARS-CoV-2); assay: ELISA
[6] = target: SARS-CoV-2 RBD (RBD-2) (SARS-CoV-2); assay: SPR, Fc-captured IgG
[7] = target: T2, SARS-CoV-2 spike on pseudovirus or live …; assay: cell-based or functional assay; remark: listed apart in the source
[8] = target: SARS-CoV-2 RBD (RBD-2) (SARS-CoV-2); assay: flow, HeLa-ACE2, mAb:RBD=2:1
[9] = target: SARS-CoV-2 RBD (RBD-2) (SARS-CoV-2); assay: flow, HeLa-ACE2, mAb:RBD=4:1

B1: L12.bP11A06 (antibody, V domains shown)
VH: EVQLVESGGGLIQPGGSLRLSCAASGLTVSSNYMSWVRQAPGKGLEWVSVIYSGGSTFYADSVKGRFTISRDNSKNTLYLQMNSLRAEDTAVYYCARDLDVYGLDVWGQGTTVTVSS
VL: DIVMTQSPSFLSASVGDRVTITCRASQGISSYLAWYQQKPGKAPKLLIYAASTLQSGVPSRFSGSGSGTEFTLTISSLQPEDFATYYCQQLNSYPPKFTFGPGTKVEIK
In the case of B1, the “PSV neutralization IC50” value [1] is reported as > 50 mg/L, the “Maximum Plateau of Neutralization” value [2] is reported as 100% and the “PSV neutralization IC50” value [2] is reported as 0.019 mg/L. For the same binder, the “PSV neutralization IC50” value [3] was > 50 mg/L.

B2: L6.dP02F01 (antibody, V domains shown)
VH: EVQLVESGGGLVQPGRSLRLSCAASGFTFDDYAMHWVRQAPGKGLEWVSGISWNSGSIAFAGSVKGRFTISRDNAKNSLYLQMNSLRAEDTALYYCAKDQGYSYGNYFDYWGQGTLVTVSS
VL: QLVLTQPPSVSVAPGKTARITCGGNNIGSKSVYWYQQKPGQAPVLVVYDDSDRPSGIPERFSGSNSGNTATLTISRVEAGDEADYYCQVWDSSSDHPYVFGSGTKVTVL
notes: human IgG1
In the case of B2, the “PSV neutralization IC50” value [1] is reported as 5.56 mg/L, the “Maximum Plateau of Neutralization” value [2] is reported as 99% and the “PSV neutralization IC50” value [2] is reported as 1.09 mg/L. The EC50 [4] was 0.021 mg/L and the EC50 [5] was 0.013 mg/L.

B3: L12.bP12E05 (antibody, V domains shown)
VH: EVQLVQSGAEVKKPGASVKVTCKTSGYIFSGYYMHWVRQVPGQGLEWMGWISPDSGATNYAQKFQGRVTMTRDTSITTSYVELTWLKSDDTAVYYCARGPRYSGTYFDFWGQGTLVTVSS
VL: QAVVTQPASVSGSPGQSLTISCTGTSSDIGGFNYVSWYQQHPGKAPKLMIFDVSKRPSGVPNRFSGSKSGNTASLTISGLQAEDEGDYYCSSYTISSAQVFGGGTKLTVL
notes: human IgG1
In the case of B3, the “PSV neutralization IC50” value [1] is reported as > 50 mg/L, the “Maximum Plateau of Neutralization” value [2] is reported as 89% and the “PSV neutralization IC50” value [2] is reported as 0.255 mg/L. For the same binder, the Kd [6] was 0.183 µM, the koff [6] was 0.143 s⁻¹ and the kon [6] was 782000 M⁻¹ s⁻¹. The EC50 [4] was > 50 mg/L, the EC50 [5] was 1.17 mg/L and the “PSV neutralization IC50” value [3] was > 50 mg/L. The “PSV neutralization IC50” value [7] was 0.075 mg/L.

B4: L12.cP08A09 (antibody, V domains shown)
VH: QVQLVQSGAEVKKPGASVKVSCKASGYIYSGYYMHWVRQAPGQGLEWMGWISPDSGGTNYAQRFQGRVTMTRDTSTTTAYMELSRLRSDDTAVYYCARGPRYSGTYFDYWGQGTLVTVSS
VL: QSALTQPASVSGSPGQSITISCTGTSSDVGGYNYVSWYQQHPDKAPKLMIYDVSNRPSGVSNRFSGSKSGNTASLTISGLQAEDEADYYCSSYTSGSTQVFGGGTKLTVL
notes: human IgG1
With B4 the “PSV neutralization IC50” value [1] was > 50 mg/L, the “Maximum Plateau of Neutralization” value [2] was 99% and the “PSV neutralization IC50” value [2] was 1.5 mg/L. The Kd [6] was 0.175 µM, the koff [6] was 0.0707 s⁻¹ and the kon [6] was 404000 M⁻¹ s⁻¹. For the same binder, the EC50 [4] was > 50 mg/L, the EC50 [5] was 0.666 mg/L and the “% inhibition of RBD binding to hACE2” value [8] was 39.4%. For the same binder, the “MFI (RBD binding to cell surface)” value [8] was 6800, the “PSV neutralization IC50” value [3] was > 50 mg/L and the “PSV neutralization IC50” value [7] was 0.382 mg/L. The “% inhibition of RBD binding to hACE2” value [9] was 49% and the “MFI (RBD binding to cell surface)” value [9] was 5740.

B5: L25.eP04C02 (antibody, V domains shown)
VH: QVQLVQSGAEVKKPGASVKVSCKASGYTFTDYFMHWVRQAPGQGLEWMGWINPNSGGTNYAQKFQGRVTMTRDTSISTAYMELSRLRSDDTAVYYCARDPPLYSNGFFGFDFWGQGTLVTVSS
VL: QSVLTQPASVSGSPGQSITISCTGTSSDVGGYNYVSWYQQHPGKAPKLMIYDVSNRPSGVSNRFSGSKSGNTASLTISGLQAEDEADYYCSSYTSSSTVVFGGGTKLTVL
notes: human IgG1
B5 was tested, and the “PSV neutralization IC50” value [1] was > 50 mg/L, the “Maximum Plateau of Neutralization” value [2] was 100% and the “PSV neutralization IC50” value [2] was 0.155 mg/L. The EC50 [4] was > 50 mg/L and the EC50 [5] was 0.026 mg/L.

B6: L12.bP10G07 (antibody, V domains shown)
VH: EVQLVQSGAEVKKPGASVKVSCKASGYIYSGYYMHWVRQAPGQGLEWMGWISPDSGGTNYAQRFQGRVTMTRDTSTTTAYMELSRLRSDDTAMYYCARGPRYSGTYFDYWGQGTLVTVSS
VL: QTVVTQPASVSGSPGQSITISCTGTSSDVGGYNYVSWYQQHPDKAPKLIIYDVSNRPSGVSNRFSGSKSGNTASLTISGLQAEDEAAYYCSSYTSSSTQVFGGGTKLTVL
notes: human IgG1
In the case of B6, the “PSV neutralization IC50” value [1] is reported as > 50 mg/L, the “Maximum Plateau of Neutralization” value [2] is reported as 100% and the “PSV neutralization IC50” value [2] is reported as 0.328 mg/L. The Kd [6] was 0.22 µM, the koff [6] was 0.0961 s⁻¹ and the kon [6] was 436000 M⁻¹ s⁻¹. The EC50 [4] was > 50 mg/L, the EC50 [5] was 1.41 mg/L and the “% inhibition of RBD binding to hACE2” value [8] was 36.6%. For the same binder, the “MFI (RBD binding to cell surface)” value [8] was 7120, the “PSV neutralization IC50” value [7] was 0.865 mg/L and the “% inhibition of RBD binding to hACE2” value [9] was 49.2%. For the same binder, the “MFI (RBD binding to cell surface)” value [9] was 5710.

B7: L12.bP11C10 (antibody, V domains shown)
VH: QVQLVQSGAEVKKPGASVKVSCKASGYIFSGYYMHWVRQAPGQGLEWMGWISPDSGGTNYAQKFQGRVTMTRDTSITTGYMELSGLRSDDTAVYYCARGPRYSGTYFDYWGQGTLVTISS
VL: QSALTQPTSVSGSPGQSITISCTGTSSDVGGYNYVSWYQQHPGKAPKLIIYDVSNRPSGVSNRFSGSKSGNTASLTISGLQAEDEADYYCSSYTVSSTQVFGGGTKLTVL
notes: human IgG1
For B7, the “PSV neutralization IC50” value [1] was > 50 mg/L, the “Maximum Plateau of Neutralization” value [2] was 100% and the “PSV neutralization IC50” value [2] was 0.494 mg/L. For the same binder, the Kd [6] was 0.255 µM, the koff [6] was 0.126 s⁻¹ and the kon [6] was 493000 M⁻¹ s⁻¹. For the same binder, the EC50 [4] was > 50 mg/L, the EC50 [5] was 3.12 mg/L and the “% inhibition of RBD binding to hACE2” value [8] was 38.5%. For the same binder, the “MFI (RBD binding to cell surface)” value [8] was 6900, the “PSV neutralization IC50” value [3] was > 50 mg/L and the “PSV neutralization IC50” value [7] was 0.092 mg/L. For the same binder, the “% inhibition of RBD binding to hACE2” value [9] was 54.1% and the “MFI (RBD binding to cell surface)” value [9] was 5170.

B8: L12.cP09D03 (antibody, V domains shown)
VH: QVQLVQSGAEVKKPGASVKVSCKASGYIFSGYYTHWVRQAPGQGLEWMGWISPDSGGTNYAQKFQGRVTMTRDTSITTAYVELSGLRSDDTAVYYCARGPRYSGTYFDYWGQGTLVTVSS
VL: QSVLTQPASVSGSPGQSITISCTGTSSDVGGYNYVSWYQQHPGKVPKLMIYDVSNRPSGVSNRFSGSKSGNTASLTISGLQAEDEADYYCSSYTSSSAQLFGGGTKLTVL
notes: human IgG1
For B8, the “PSV neutralization IC50” value [1] was > 50 mg/L, the “Maximum Plateau of Neutralization” value [2] was 85% and the “PSV neutralization IC50” value [2] was 0.135 mg/L. For the same binder, the Kd [6] was 0.147 µM, the koff [6] was 0.0843 s⁻¹ and the kon [6] was 575000 M⁻¹ s⁻¹. The EC50 [4] was > 50 mg/L, the “% inhibition of RBD binding to hACE2” value [8] was 40.9% and the “MFI (RBD binding to cell surface)” value [8] was 6640. The “PSV neutralization IC50” value [3] was > 50 mg/L, the “PSV neutralization IC50” value [7] was 0.351 mg/L and the “% inhibition of RBD binding to hACE2” value [9] was 50.1%. For the same binder, the “MFI (RBD binding to cell surface)” value [9] was 5620.

B9: L6.dP02A05 (antibody, V domains shown)
VH: EVQLVQSGAEVKKPGASVKVSCMASGYTFTSYYMHWVRQAPGQGLEWMGIISPSGGGTSYAQKFQGRVTLTRDTSTSTVYMELSSLRSEDTAVYYCARWYDSTGSIDYWGQGTLVTVSS
VL: DIVMTQSPSSLSASVGDRVTITCRASQGIRNDLGWYQQKPGKAPKRLIYAASSLQSGVPSRFSGSGSGTEFTLTISSLQPEDFATYYCLQHNSYPILTFGGGTKVEIK
notes: human IgG1
For B9, the “PSV neutralization IC50” value [1] was > 50 mg/L, the “Maximum Plateau of Neutralization” value [2] was 100% and the “PSV neutralization IC50” value [2] was 0.059 mg/L. For the same binder, the EC50 [4] was > 50 mg/L and the EC50 [5] was 0.025 mg/L.

B10: L25.dP06E11 (antibody, V domains shown)
VH: QVQLVESGGGLVQPGRSLRLSCAASGFTFDDYAMHWVRQAPGKGLEWVSGISWNSGSIGYADSVKGRFTISRDNAKNSLYLQMNGLRAEDTALYYCAKVPQRSRYLVGWFDPWGQGTLVTVSS
VL: not shown
notes: human IgG1
For B10, the “PSV neutralization IC50” value [1] was > 50 mg/L, the “Maximum Plateau of Neutralization” value [2] was 55% and the “PSV neutralization IC50” value [2] was 34.6 mg/L. The EC50 [4] was 0.017 mg/L and the EC50 [5] was 0.016 mg/L.
